Results as given in patent publication US20250235479A1 (INNOBATION BIO, published 2025).

B1: 2G1 antibody (mouse anti-CD22 antibody) (antibody, V domains shown)
VH: EVQLQESGPGLVAPSQSLSITCTVSGFSLTSYDISWIRQPPGKGLEWLGVIWTGGGTNYNSAFMSRLSISKDNSKSQVFLKMNSLQTDDTAIYYCVPHYYGYAMDYWGQGTSVTVSS
VL: DIVLTQSPSSLSASLGGKVTITCKASQDINKYIAWYQHKPGKGPRLLIHYTSTLQPGIPSRFSGSGSGRDYSFSISNLEPEDIATYYCLQYDNLLTFGAGTKLELK
notes: Obtained from a mouse hybridoma; also called mouse 2G1 antibody
B2: humanized anti-CD22 antibody 2G1(V4) (antibody, V domains shown)
VH: EVQLQESGPGLVKPSQTLSLTCTVSGFSLTSYDISWIRQPPGKGLEWLGVIWTGGGTNYNSALKSRVTISKDNSKSQVSLKLSSVTAADTAVYYCVPHYYGYAMDYWGQGTTVTVSS
VL: EIVLTQSPATLSLSPGERATLSCRASQDINKYIAWYQQKPGQAPRLLIHYTSTRQTGIPARFSGSGSGRDYTLTISSLEPEDFAVYYCLQYDNLLTFGGGTKLEIK
notes: CDR-grafted humanized form of 2G1
B3: humanized anti-CD22 antibody 2G1(V12) (antibody, V domains shown)
VH: EVQLKESGPVLVKPTETLTLTCTVSGFSLTSYDISWIRQPPGKALEWLGVIWTGGGTNYNSALKSRLTISKDNSKSQVVLTMTNMDPVDTATYYCVPHYYGYAMDYWGQGTTVTVSS
VL: B2 VL
notes: as for B2

What was measured:
[1] = biological target: T1, CD22 expressed on cells (U2932, NALM6, K562/CD22+ cells) (UniProt P20273 20-847, limits assumed); assay: flow cytometry on U2932 cells expressing CD22
T1 construct: whole, on cells; the cell lines are human lines; also called cells expressing CD22
T1 sequence (looked up): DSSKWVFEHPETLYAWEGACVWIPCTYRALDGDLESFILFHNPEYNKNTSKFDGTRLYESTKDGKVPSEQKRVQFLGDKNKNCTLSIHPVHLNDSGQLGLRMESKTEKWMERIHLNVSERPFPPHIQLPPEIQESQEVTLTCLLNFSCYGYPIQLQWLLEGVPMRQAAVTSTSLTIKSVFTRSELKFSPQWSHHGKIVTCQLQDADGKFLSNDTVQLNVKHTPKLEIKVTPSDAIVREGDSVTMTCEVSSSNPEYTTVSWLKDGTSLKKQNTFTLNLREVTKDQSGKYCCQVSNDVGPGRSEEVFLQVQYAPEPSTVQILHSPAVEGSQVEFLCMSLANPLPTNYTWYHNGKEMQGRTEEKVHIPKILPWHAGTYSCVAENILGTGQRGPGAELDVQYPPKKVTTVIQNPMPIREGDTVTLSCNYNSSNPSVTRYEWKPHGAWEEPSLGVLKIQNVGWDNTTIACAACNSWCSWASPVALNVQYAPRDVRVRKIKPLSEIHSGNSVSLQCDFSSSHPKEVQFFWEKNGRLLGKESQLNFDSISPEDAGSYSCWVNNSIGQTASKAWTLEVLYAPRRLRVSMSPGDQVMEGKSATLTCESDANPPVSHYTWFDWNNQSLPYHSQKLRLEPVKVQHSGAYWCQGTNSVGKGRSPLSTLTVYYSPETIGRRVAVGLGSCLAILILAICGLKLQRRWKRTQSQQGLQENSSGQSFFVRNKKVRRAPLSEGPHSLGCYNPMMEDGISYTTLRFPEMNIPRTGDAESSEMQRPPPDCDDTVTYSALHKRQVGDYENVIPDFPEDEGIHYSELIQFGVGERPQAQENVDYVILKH

[2] = biological target: T2, CD22 protein (ACRObiosystems Inc., cat #CD2-H52H8, USA) (UniProt P20273 20-687); assay: ELISA screening of hybridoma clones
T2 construct: Named as the immunogen
T2 sequence (looked up): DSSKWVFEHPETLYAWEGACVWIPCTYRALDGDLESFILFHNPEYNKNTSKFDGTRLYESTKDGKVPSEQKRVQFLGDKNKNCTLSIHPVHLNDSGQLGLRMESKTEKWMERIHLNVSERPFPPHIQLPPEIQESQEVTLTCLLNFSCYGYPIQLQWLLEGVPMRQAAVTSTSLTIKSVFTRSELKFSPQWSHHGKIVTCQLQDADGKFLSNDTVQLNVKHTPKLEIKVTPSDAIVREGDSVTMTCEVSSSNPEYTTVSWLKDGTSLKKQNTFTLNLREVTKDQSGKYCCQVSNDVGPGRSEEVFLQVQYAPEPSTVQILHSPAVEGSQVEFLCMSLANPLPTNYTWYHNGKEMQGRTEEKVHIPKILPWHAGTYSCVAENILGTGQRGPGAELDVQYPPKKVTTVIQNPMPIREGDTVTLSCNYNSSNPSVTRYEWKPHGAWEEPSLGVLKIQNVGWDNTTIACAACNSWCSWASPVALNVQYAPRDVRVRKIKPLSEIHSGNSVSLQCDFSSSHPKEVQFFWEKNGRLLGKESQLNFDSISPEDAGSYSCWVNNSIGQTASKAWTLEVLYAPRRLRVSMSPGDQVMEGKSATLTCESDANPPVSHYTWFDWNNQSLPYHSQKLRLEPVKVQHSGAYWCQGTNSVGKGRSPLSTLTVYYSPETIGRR
Excerpt: A limiting dilution method was used to select a hybridoma that produces an antibody binding to CD22 from among the proliferated hybridomas. First, the number of cells was reduced to 1 cell or less per […], and then it was confirmed by ELISA whether an antibody obtained from a clone proliferated from one cell bound to CD22, and a clone binding to CD22 was selected. The above process was repeated three times to select hybridomas that produced the antibody binding to CD22. The antibody binding to CD22 was obtained in this manner.

Binder	binding result [1]	binding result [2]
B1	binds	binds
B2	binds	
B3	binds	
